The values that follow come from the RNAGym collection of RNA variant scans (doi:10.1073/pnas.2313332121).

B1: TPR t1 (parent)
chain: GACCAAUCUGCCCUCAGAGCUCGAGAACAUCUUCGGAUGCAGAGGAGGCAGGCUUCGGUGGCGCGAUAGCGCCAACGUCCUCAACCUCCAAUGCAUCCCACCACAUGAUGAUGCCUGAAGAGCCUUGGUUUUUUG

In the data set the parent is B1. The experiment in a line: polymerase ribozyme fitness, log enrichment relative to wild type (log ratio); higher = more active; in vitro selection for triplet polymerase activity. The gist of the method:
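Mutant libraries of each subunit of a heterodimeric triplet polymerase ribozyme were built by PCR and transcribed. Each library went through one round of in vitro selection in triplicate: annealing with biotinylated primer, partner subunit and triplets, frozen incubation at −7 °C, gel excision of extended constructs, streptavidin-bead capture and RT-PCR. Input and output libraries were Illumina-sequenced; only genotypes with ≥10 input reads and ≥1 read per output were kept. Fitness is log2(genotype enrichment/wild-type enrichment), using inverse-variance-weighted replicate averages.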
For the variant G48A C72G G77A U78A C79A G120A U130A, the “polymerase ribozyme fitness (log ratio)” value was -2.79.
For the variant C49A C73G, the “polymerase ribozyme fitness (log ratio)” value was -1.88.
The same measure for C49A C73A: 0.508.
The same measure for G48C G51U C73U C76A G77A A119G: -6.51.
G48A G60U C115U: the “polymerase ribozyme fitness (log ratio)” value was -0.887.
In the case of G48C G57U G69U U92C it was -1.31; in that of G48U C98U, -1.96; in that of G48U A95U G117U, -3.3.
The same measure for C49A C86A: -2.07.
Consider G48A C97A U112C, for which the “polymerase ribozyme fitness (log ratio)” value was -2.48.
In the case of G48C G60U A105C U116C it was -5.8; in that of G48C G60A, -1.1; in that of G48C G60C, -1.63.
As to G48C U87G A95C, the “polymerase ribozyme fitness (log ratio)” value was -3.
On to C49A G51C G57C C72U C115G, for which the “polymerase ribozyme fitness (log ratio)” value is -3.69.
The same measure for G48U G122A: -1.27.
In the case of G48U G110U U125A it was -2.52.
Take G48A C62G: the “polymerase ribozyme fitness (log ratio)” value is -2.29.
G48A G61U U112A U125G G127C: the “polymerase ribozyme fitness (log ratio)” value is -0.619.
The same measure for G48U C72G U96C: -1.54; for C49A C64U G117U: -2.9; for C49A C72G U132C: -0.77.
In the case of G48A C88U it was -0.667; in that of G48C G93A, -1.82; in that of G48C G93C, -0.578.
As for G48U C62G C104A U106C, the “polymerase ribozyme fitness (log ratio)” value was -5.05.
The same measure for C49A A50C A119G: 0.187; for G48U U131C: -0.204.
The same measure for C49A C104G A111C: -6.5; for G48U A84G: 0.021; for C49A G60A A121C G122A: 0.833.
The same measure for G48A U54C U55A C94A A118U: -1.02; for G48C G60U U106A G107C: -6.48; for G48U U54C C73G C82G G113A G122A U126G: -6.92.
On to G48C G61U C98U U112C, for which the “polymerase ribozyme fitness (log ratio)” value is -1.23.
In the case of G48U G61U it was 0.43; in that of C49A G61U A83C U129C, -0.881; in that of G48U C124U U125A, 0.397.
The same measure for G48C G71C: -0.845.
In the case of G48U G63A it was -1.96; in that of G48A C89G A95G, -3.06; in that of G48U G120A C123U, 0.409.
Turning to G48C C53G C64G G65A U109G, the “polymerase ribozyme fitness (log ratio)” value is -6.8.
In the case of G48U G71U U96C it was -1.48; in that of G48A G51A G71A C79A A84U G128A U129G, -6.49; in that of G48U U59C C70G, -6.09.
In the case of C49A G61C G110U U125C it was -4.57.
The same measure for C49A A91G G93U G117U G135A: -6.28; for G48A C124G: 0.442; for G48U C70U C86U G113A: -2.66.
G48C C104U G135U: the “polymerase ribozyme fitness (log ratio)” value was -1.53.
The same measure for G48A C115U: -1.61; for G48A C115A: -1.47; for G48A C72U G77C C82G A91C G110C G127C: -6.25.
The same measure for G48A G61C A66U: -2.1; for G48A G69U C82G G113U U132A: -2.33; for G48U U132A: -0.856.
The same measure for C49A A66U A90C: -3.76; for G48A G69C C123U: -0.587.
On to G48A G60U A90C C114A, for which the “polymerase ribozyme fitness (log ratio)” value is -2.49.
In the case of G48U C56A C102U it was -2.75; in that of G48A G113U G120U, -3.65.
The same measure for C49A A90U A111C G113A G122C: -3.8; for C49A C56U A121U: 1.74.
In the case of G48C G71A G110A G120A it was -3.66.
On to C49A C53G, for which the “polymerase ribozyme fitness (log ratio)” value is -0.789.
As for G48C U78A A111U C123A U129A, the “polymerase ribozyme fitness (log ratio)” value is -6.15.
In the case of G48C C70U C85U G107U it was -6.63.
The same measure for G48U U59A G60U C79U U92G G122A C123A: -5.96; for G48C C49U A111U U133A: -4.49.
Regarding C49A C56G G69U C72A, the “polymerase ribozyme fitness (log ratio)” value is -3.13.
In the case of G48A C79A C97U it was -2.68; in that of G48C C70U C124A, 0.758.
In the case of G48C C49A C56U U87A U96A G120C it was -2.17.
In the case of C49A A90U A91U A111C A119G U130A U131C it was -2.85; in that of G48U G52U C102A, -4.14; in that of G48A G52U C80G, -5.98.
Turning to C49A G57U, the “polymerase ribozyme fitness (log ratio)” value is -0.512.
In the case of C49A G57A it was -1.5; in that of C49A A105C A118G U130A, -3.62.
The same measure for G48A G77U G135U: -1.78; for G48U U134G: -0.783; for G48C C115A A121U: 0.474.
